Patent US20250163137A1 (UNI PHARMA, published 2025)

Columns and labels:
[1] = target: T1, canine FDP (fibrin-fibrinogen degradation products) (canine); experiment: kinetic analysis, 1:1 binding fit (RU read-out; instrument not named)
T1 construct: A heterogeneous mixture

[2] = target: T1, canine FDP (fibrin-fibrinogen …); experiment: affinity test (RU read-out; instrument not named)

T1 sequence (Q9NRC9 whole entry): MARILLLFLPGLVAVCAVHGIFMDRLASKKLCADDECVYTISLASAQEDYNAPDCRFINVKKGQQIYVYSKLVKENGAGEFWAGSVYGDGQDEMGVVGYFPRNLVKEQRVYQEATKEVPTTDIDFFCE

B1: mAb 14G12-5 (antibody, V domains shown)
VH: EVQLVESGGGLVKPGGSLKLSCAASGFAFNAYDMSWVRQTPEKRLEWVAYISSSGDYTYYPDTVKGRFTVSRDNAKSTLYLHMGSLKSEDTAMYYCAVYYHYDEGLDYWGQGTALTVSS
VL: QIVLIQSPAIMSASPGEKVTMTCSASSSVNYMHWYQQKSGTSPKRWIYDTSKLASGVPARFSGSGSGTSYSLTISSMEAEDAATYYCQQWSSNPPTFGGGTKLEIKR
notes: also called 14G12-5 mAb; recombinant antibody 14G12-5
Binder B1 has a Kd [1] of 55.2 nM, a koff [1] of 0.0026 s⁻¹ and a kon [1] of 47100 M⁻¹ s⁻¹. The Kd [2] was 5030 nM.
